Assay results from patent US12383631 (BRIGHT PEAK THERAPEUTICS, dated 2025).

T1: IL-18 receptor (IL-18Rα/IL-18Rβ) on cells (HEK-Blue IL18R reporter cells, NK-92, KG-1) (human, UniProt Q13478 19-541; O95256 20-599)
T1 sequence (looked up) 1: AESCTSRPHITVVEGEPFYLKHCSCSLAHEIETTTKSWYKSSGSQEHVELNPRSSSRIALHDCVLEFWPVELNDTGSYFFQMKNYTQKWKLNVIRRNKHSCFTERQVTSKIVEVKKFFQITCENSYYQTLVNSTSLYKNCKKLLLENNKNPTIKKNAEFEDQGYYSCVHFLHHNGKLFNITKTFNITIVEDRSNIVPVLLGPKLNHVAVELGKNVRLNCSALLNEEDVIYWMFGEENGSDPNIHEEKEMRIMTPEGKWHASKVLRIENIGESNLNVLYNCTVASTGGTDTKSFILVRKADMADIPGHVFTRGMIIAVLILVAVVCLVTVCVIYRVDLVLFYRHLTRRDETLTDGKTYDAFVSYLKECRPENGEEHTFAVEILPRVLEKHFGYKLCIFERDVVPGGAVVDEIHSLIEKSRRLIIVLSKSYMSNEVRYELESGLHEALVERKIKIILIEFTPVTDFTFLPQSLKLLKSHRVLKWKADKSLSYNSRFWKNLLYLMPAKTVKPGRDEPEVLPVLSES
T1 sequence (looked up) 2: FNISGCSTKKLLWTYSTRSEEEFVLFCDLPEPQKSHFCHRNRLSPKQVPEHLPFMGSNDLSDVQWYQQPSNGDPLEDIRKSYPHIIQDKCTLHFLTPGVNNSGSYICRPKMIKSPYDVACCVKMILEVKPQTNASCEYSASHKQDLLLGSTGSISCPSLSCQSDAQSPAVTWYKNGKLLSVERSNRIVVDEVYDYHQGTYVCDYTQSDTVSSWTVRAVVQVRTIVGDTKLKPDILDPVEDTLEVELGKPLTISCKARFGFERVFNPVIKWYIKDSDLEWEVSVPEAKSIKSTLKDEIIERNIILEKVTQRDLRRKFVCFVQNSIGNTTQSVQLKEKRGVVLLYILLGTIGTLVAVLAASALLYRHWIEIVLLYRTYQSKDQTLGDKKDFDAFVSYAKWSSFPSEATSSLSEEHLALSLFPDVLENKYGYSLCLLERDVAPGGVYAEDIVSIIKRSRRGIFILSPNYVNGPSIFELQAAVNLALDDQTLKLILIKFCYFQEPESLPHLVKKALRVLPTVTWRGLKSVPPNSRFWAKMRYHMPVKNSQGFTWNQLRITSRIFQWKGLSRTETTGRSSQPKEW

B1: human IL-18BP-His (other)
chain: TPVSQTTTAATASVRSTKDPCPSQPPVFPAAKQCPALEVTWPEVEVPLNGTLSLSCVACSRFPNFSILYWLGNGSFIEHLPGRLWEGSTSRERGSTGTQLCKALVLEQLTPALHSTNFSCVLVDPEQVVQRHVVLAQLWAGLRATLPPTQEALPSSHSSPQQQG
notes: also called His-tagged human IL-18BP; not shown: His tag
B2: IL-18 polypeptide of SEQ ID NO: 30 (E6K, V11I, C38A, K53A, T63A, C76A, C127A) (ligand)
chain: YFGKLKSKLSIIRNLNDQVLFIDQGNRPLFEDMTDSDARDNAPRTIFIISMYADSQPRGMAVAISVKCEKISTLSAENKIISFKEMNPPDNIKDTKSDIIFFQRSVPGHDNKMQFESSSYEGYFLAAEKERDLFKLILKKEDELGDRSIMFTVQNED
notes: also called C086

Assays:
[1] = biological target: T2, Composition B (Atezolizumab/Tecentriq conjugated to IL-18 polypeptide of SEQ ID NO: 30) (human, UniProt P0DOX5 2-449 = IgG part; P0DOX7 1-214; Q14116 37-193, chemical linker to the antibody; site not stated for this composition; chemical linker to IL-18; site not stated for this composition); experiment: AlphaLISA of free IL-18BP after incubation with IL-18BP-His
T2 construct: immunocytokine
Protocol: (§1) Under subdued light, 12.5 µl of pre-mixed Donor beads were added, followed by a short centrifugation step at 150 g, and incubated for 30 minutes at 20° C. under shaking at 750 rpm with no light. AlphaLisa signal was then measured on an Enspire plate reader (Perkin Elmer) using 680 and 615 nm as excitation and emission wavelengths respectively.

[2] = biological target: T1, IL-18 receptor (IL-18Rα/IL-18Rβ) on …; experiment: cell-based or functional assay
[3] = biological target: T1, IL-18 receptor (IL-18Rα/IL-18Rβ) on …; experiment: cell-based or functional assay; remark: listed apart in the source
human IL-18BP-His = biological target: B1; experiment: AlphaLISA of free IL-18BP after incubation with IL-18BP-His
Protocol: as §1

[4] = biological target: T1, IL-18 receptor (IL-18Rα/IL-18Rβ) on …; experiment: cell-based or functional assay; remark: listed apart in the source

Kd [1] [pM] | EC50, IFNγ secretion, NK92 cells [2] [pM] | EC50, HEK-Blue IL18R reporter cells [3] [pM] | Kd (human IL-18BP-His) [pM] | EC50, IFNγ secretion, PD-1 positive KG-1 cells [4] [pM] | EC50, IFNγ secretion, parental KG-1 cells [4] [pM] | Binder
6380 |  |  |  |  |  | B1
 | 2 | 0.034 | 24600 | 8 | 12 | B2
